According to PMC1925066, “Optical biosensor differentiates signaling of endogenous PAR1 and PAR2 in A431 cells” (BMC Cell Biology, 2007):

Assays:
[1] = system: endogenous PAR1 and PAR2 in A431 cells; assay: Fluo-3 Ca2+ mobilization (Ca2+ flux) assay in quiescent A431 cells; type: cell-based, human
Protocol: (§1) Human epidermoid carcinoma A431 cells ([…]) were grown in Dulbecco's modified Eagle's medium (DMEM) supplemented with 10% fetal bovine serum (FBS), 4.5 g/liter glucose, 2 mM glutamine, and antibiotics. ~5 × 10^4 cells at passage 3 to 8 suspended in 200 μl the DMEM medium containing 10% FBS were placed in each well of a 96well microplate, and were cultured at 37°C under air/5% CO2 for ~2 days, followed by ~20 hr starvation through continuously culturing in the serum-free DMEM.
Cells were grown in Costar™ 96well clear cell culture microplates. After starvation, the cells were washed with 1× HBSS (1× regular Hank's balanced salt solution, 20 mM HEPES buffer, pH 7.0) in the presence of 2.5 mM probenicid, and labeled in the same buffer containing 4 μM Fluo-3 for 1 hour at room temperature. The cells were then washed twice with buffer, maintained with 100 μl 1× HBSS containing 2.5 mM probenicid. The assay was initiated by transferring 50 μl PAR agonist solution to the cell plate, and calcium signal was recorded over 6 minutes with a 6 sec interval using HTS7000 BioAssay Reader (PerkinElmer Life Science, Boston, MA). The fluorescent intensity before stimulation was recorded and used as a baseline. The percentage increase in fluorescence intensity after stimulation, relative to the baseline fluorescence, was analyzed and used directly as a measure for the increase of intracellular Ca^2+ level induced by PAR agonists.
(§2) Unless specifically mentioned, three replicates were carried out for each measurement or each compound. The standard deviation was derived from these measurements (n = 3). […] All dose-dependent responses were analyzed using non-linear regression method with the Prism software (Graph Pad).

[2] = system: endogenous PAR1 and PAR2 in A431 cells; assay: MRCAT resonant waveguide grating biosensor DMR assay in quiescent A431 cells; type: cell-based, human; conditions: for EC50: A431 cells
Protocol: as §1
Corning® Epic™ angular interrogation system with transverse magnetic or p-polarized TM0 mode was used for all studies. The detailed instrumental setup and assay protocols had been previously described. Briefly, all compound solutions were prepared using 1 × HBSS containing minimal amount of dimethyl sulfoxide, while the starved cells were washed and maintained with 100 μl the serum-free DMEM. The cells were then treated with 50 μl 1 × HBSS buffered solution in the absence and presence of a compound, followed by stimulation with ligand solutions. The cellular responses were monitored in real time throughout the assays.
as §2

[3] = system: A431 cells; parameters: method as in PMID 16766609; conditions: doses greater than ~1000 nM; cited from earlier work

B1: Trypsin: serine protease, PAR2 agonist, purchased from Sigma (protein, UniProt P00760 24-246, looked up)
Serine protease 1: IVGGYTCGANTVPYQVSLNSGYHFCGGSLINSQWVVSAAHCYKSGIQVRLGEDNINVVEGNEQFISASKSIVHPSYNSNTLNNDIMLIKLKSAASLNSRVASISLPTSCASAGTQCLISGWGNTKSSGTSYPDVLKCLKAPILSDSSCKSAYPGQITSNMFCAGYLEGGKDSCQGDSGGPVVCSGKLQGIVSWGSGCAQKNKPGVYTKVCNYVSWIKQTIASN
Q: With B1 as the molecule, how does the “maximal [Ca^2+]i elevation” value ([1]; A431 cells, SFLLR-amide at 80 μM) read?
A: 100 ± 6%

Q: What about the EC50 ([1]; A431 cells, read-out: EC50 (n = 3) Ca^2+ flux assay) of the same molecule?
A: 45.7 ± 5.8 nM

Q: What about the “responsiveness (Ca^2+ mobilization) after pre-stimulation with thrombin” value ([1]; thrombin 40 unit/ml first, separated by 6 min) of the same molecule?
A: only partially

Q: What about the “Ca^2+ mobilization response after pre-stimulation with trypsin” value ([1]; trypsin 200 nM first, repeated stimulation separated by 6 min) of the same molecule?
A: completely blocked

Q: And the EC50 ([2]; amplitude of N-DMR event, read-out: EC50 (n = 3) N-DMR)?
A: 102 ± 21.9 nM

Q: What about the EC50 ([2]; amplitude of P-DMR event, read-out: EC50 (n = 3) P-DMR) of the same molecule?
A: 98 ± 27.8 nM

Q: What about the “desensitization of trypsin-treated cells (DMR signal)” value ([2]; trypsin 200 nM first, repeated stimulation separated by ~1 hr) of the same molecule?
A: completely desensitized

Q: And the cell detachment [3]?
A: significant cell detachment
